In US20200209238A1, “OPTIMIZING DIAGNOSTICS FOR GALACTOFURANOSE CONTAINING ANTIGENS” (The Johns Hopkins University, priority 2017, published 2020):

Key:
[1] = test system: Aspergillus ethanol precipitate (EP); assay: rIntL-1 binding to Aspergillus ethanol precipitate, ELISA; details: buffer with 10 mM CaCl2
Protocol: Wells of a microtiter plate were coated with 10 μg/ml of EP antigen and blocked with a blocking buffer containing 0.1% BSA in IntL-ELISA buffer (20 mM HEPES pH7.4; 150 mM NaCl; 10 mM CaCl2); 0.1% Tween-20. Ref: Wesener et al. (2015) Nature Structural & Molecular Biology, 22(8):603). Recombinant human IntL-1 (rintL-1) was serially diluted tenfold in blocking buffer starting at 10^−6 M, and incubated on the EP-coated plate for 2 h at 30° C., followed by washes with IntL-ELISA buffer. The bound IntL was detected by an anti-omentin Rabbit IgG ab (Millipore) diluted 1:1000 in blocking buffer and incubated at 30° C. for 2 h. Wells were again washed and incubated with a goat anti-Rabbit IgG-AP at 1:1000 for 1 h at 30° C. Following another wash, the color was developed by AP substrate for 30 minutes at 37° C.
Conidia from Aspergillus fumigatus were counted and adjusted to 10^6/mL in Sabouraud's Dextrose broth, and grown for 6 hours at 37° C. to germinate (forming hyphae). The collection of swollen, germinating conidia and growing hyphae from already-germinated conidia were killed with heat at 90° C. for 1 h. The fungal material (killed conidia and hyphae) was pelleted by centrifugation, resuspended in IntL-ELISA blocking buffer, and incubated with 10^−7 M rIntL-1 (FLAG-tagged) in presence of 10 μg/mL of either MAb476 or an irrelevant, isotype control antibody mouse IgM for 2 h at 30° C. […]

[2] = test system: Aspergillus fumigatus conidia and hyphae; assay: rIntL-1 binding to conidia and hyphae, fluorescence microscopy
Protocol: Conidia from Aspergillus fumigatus were counted and adjusted to 10^6/mL in Sabouraud's Dextrose broth, and grown for 6 hours at 37° C. to germinate (forming hyphae). The collection of swollen, germinating conidia and growing hyphae from already-germinated conidia were killed with heat at 90° C. for 1 h. The fungal material (killed conidia and hyphae) was pelleted by centrifugation, resuspended in IntL-ELISA blocking buffer, and incubated with 10^−7 M rIntL-1 (FLAG-tagged) in presence of 10 μg/mL of either MAb476 or an irrelevant, isotype control antibody mouse IgM for 2 h at 30° C. Following washes with IntL-ELISA buffer, the material was resuspended in IntL-ELISA blocking buffer and incubated with a 1:50 diluted anti-FLAG tag antibody conjugated to the red fluorochrome phycoerythrin (PE). Again, after washes, the stained material was resuspended in IntL-ELISA blocking buffer, transferred to chamber slides and observed under a fluorescent microscope. The inventors performed experiments wherein Aspergillus ethanol precipitate and whole cells (conidia and hyphae) were exposed to rIntL-1 and then a sandwich assay using Rabbit polyclonal antibodies to INTL-1 and goat anti-rabbit antibodies with a fluorescent ligand were performed in buffer comprising 10 mM CaCl2). […] Thus, IntL-1 could be the competitive agent which is interfering with the inventors' antibodies to galF.

[3] = Western blot of urine with mAb476; assay type: binding, human
Protocol: Studies were performed using urine collected from control patients (pooled) and patient who had Aspergillus infection (VU7). The samples were run in a reducing SDS polyacrylamide gel electrophoresis (PAGE), and the resolved proteins were transferred to a nylon membrane for performing a Western Blot. Some samples used concentrated urine (denoted by “c”) using an Amicon concentrator or were pretreated by desalting columns (denoted by “ds”).

[4] = Immunoprecipitation of urine with mAb476-coated dynabeads; assay type: binding, human; details: normal urine
Protocol: Studies were performed to identify the proteins that are bound by mAb476 after immunoprecipitation, using mass spectrophotometry. To enrich sample detection of moieties specifically binding to mAb476, urines were incubated with superparamagnetic dynabeads coated with mAb476 and a mouse control antibody. mAb476 reactive material was eluted with 50 mM glycine (pH 2.5-3.0). […] Reactivity to mAb476 eluates was confirmed by sandwich ELISA. Eluates were then run on SDS-PAGE gels to check for band patterns, and in-solution mass spectrometry analysis was performed. Analysis detected the microbial antigen CelA/Aspf7 (a galF-containing 0-glycan).

Row | Molecule | binding to Aspergillus ethanol precipitate [1] | binding to whole cells (conidia & hyphae) ([2]; 10^−7 M FLAG-tagged rIntL-1, heat-killed Af293 conidia and hyphae) | effect on cellular rINTL-1 binding (galF recognition) ([2]; 10 μg/mL antibody with 10^−7 M rIntL-1) | reactive bands in Western blot ([3]; healthy human pooled urine) | molecular weight of reactive bands in Western blot ([3]; urine from patients with aspergillosis) [kDa] | binding in immunoprecipitation [4]
1 | rINTL-1: Recombinant human IntL-1 (intelectin-1), FLAG-tagged in the cell binding test (protein) TDEANTYFKEWTCSSSPSLPRSCKEIKDECPSAFDGLYFLRTENGVIYQTFCDMTSGGGGWTLVASVHENDMRGKCTVGDRWSSQQGSKAVYPEGDGNWANYNTFGSAEAATSDDYKNPGYYDIQAKDLGIWHVPNKSPMQHWRNSSLLRYRTDTGFLQTLGHNLFGIYQKYPVKYGEGKCWTDNGPVIPVVYDFGDAQKTASYYSPYGQREFTAGFVQFRVFNNERAANALCAGMRVTGCNTEHHCIGGGGYFPEASPQQCGDFSGFDWSGYGTHVGYSSSREITEAAVLLFYR | bound Aspergillus ethanol precipitate with high affinity | binds to whole cells | – | – | – | –
2 | mAb476: galF-specific monoclonal antibody, VH domain of SEQ ID NO:9 and VL domain of SEQ ID NO:10 (antibody, V domains shown) VH: EVQLEESGGGLVQPGGSLRLSCATSGFTFSDFYMEWVRQTPGERLEWIAASRNKANDYTAEYSASVKGRFTVFRDTSQNILYLQMNALRAEDTAAYYCARDADYGKTFSWYFDVWGAGTTVTVSS VL: DIVMTQDELSNPVTSGESVHISCRSSKSLLYKDGKTYLNWFLQRPGQSPQLLIYLMSTRASGVSDRFSGSGSGTDFTLEISRVKAEDVGVYYCQQLVEYPLTFGAGTKLELK | – | – | GalF recognition is reduced | no reactive bands | 26 to 35 | No mAb476 binding occurred
